Experimental data as given in patent US6558661 (Genentech, dated 2003).

B1: murine IFN-γ receptor-IgG-1 immunoadhesin (mIFNγR-IgG-1) (Fc fusion, UniProt P15261 26-254, looked up, not shown: a dimerising Fc or GST)
chain: ALTSTEDPEPPSVPVPTNVLIKSYNLNPVVCWEYQNMSQTPIFTVQVKVYSGSWTDSCTNISDHCCNIYEQIMYPDVSAWARVKAKVGQKESDYARSKEFLMCLKGKVGPPGLEIRRKKEEQLSVLVFHPEVVVNGESQGTMFGDGSTCYTFDYTVYVEHNRSGEILHTKHTVEKEECNETLCELNISVSTLDSRYCISVDGISSFWQVRTEKSKDVCIPPFHDDRKDS
B2: recombinant murine IFN-γ (ligand, UniProt P01580 23-155, looked up)
chain: HGTVIESLESLNNYFNSSGIDVEEKSLFLDIWRNWQKDGDMKILQSQIISFYLRLFEVLKDNQAISNNISVIESHLITTFFSNSKAKKDAFMSIAKFEVNNPQVQRQAFNELIRVVHQLLPESSLRKRKRSRC
modifications: radioiodinated with 125I using lactoperoxidase in the binding assays and ligand blots; unlabeled as competitor and in cell assays
notes: also called mIFN-γ
B3: recombinant human IFN-γ (ligand, UniProt P01579 24-166, looked up)
chain: QDPYVKEAENLKKYFNAGHSDVADNGTLFLGILKNWKEESDRKIMQSQIVSFYFKLFKNFKDDQSIQKSVETIKEDMNVKFFNSNKKKRDDFEKLTNYSVTDLNVQRKAIHELIQVMAELSPAAKTGKRKRSQMLFRGRRASQ
modifications: radioiodinated with 125I using lactoperoxidase in the binding assays and ligand blots; unlabeled as competitor and in cell assays
notes: also called hIFN-γ
B4: human IFN-γ receptor-IgG-1 immunoadhesin (hIFNγR-IgG-1) (Fc fusion, not shown: a dimerising Fc or GST)
chain: EMGTADLGPSSVPTPTNVTIESYNMNPIVYWEYQIMPQVPVFTVEVKNYGVKNSEWIDACINISHHYCNISDHVGDPSNSLWVRVKARVGQKESAYAKSEEFAVCRDGKIGPPKLDIRKEEKQIMIDIFHPSVFVNGDEQEVDYDPETTCYIRVYNVYVRMNGSEIQYKILTQKEDDCDEIQCQLAIPVSSLNSQYCVSAEGVLHVWGVTTEKSKEVCITIFNSSIKG

Tests used:
recombinant murine IFN-γ = molecular target: B2; assay: cell-based or functional assay
[1] = molecular target: B1; assay: equilibrium binding of [125I]mIFN-γ to immunoadhesin immobilized on anti-human IgG Fc coated wells, Scatchard analysis
Experimental: (§1) IFNv binding assays. The binding of IFNγR-IgGs to IFN-γ was analyzed essentially as described [Ashkenazi et al., *Proc. Natl. Acad. Sci. USA* 88: 10535–10539 (1991)]. Each IFNγR-IgG (1 μg/ml) was immobilized onto microtiter wells coated with goat anti-human IgG Fc antibody. […] Nonspecific binding was determined by omitting IFNγR-IgGs.
(§2) Binding of IFNγR-IqG to IFN-γ. We investigated the binding of the human and murine immunoadhesins to IFN-γ by equilibrium binding analysis (FIG. 2). […] 135: 300–305 (1985); Ucer, et al, Int. J. Cancer 36: 103–108 (1985)].

[2] = molecular target: B4; assay: competition binding assay with [125I]hIFN-γ on immobilized hIFNγR-IgG (data not shown)
Experimental: as §1, §2

[3] = molecular target: B1; assay: competition binding assay with [125I]mIFN-γ on immobilized mIFNγR-IgG (data not shown)
Experimental: as §1, §2

[4] = molecular target: B4; assay: equilibrium binding of [125I]hIFN-γ to immunoadhesin immobilized on anti-human IgG Fc coated wells, Scatchard analysis
Experimental: as §1, §2

recombinant human IFN-γ = molecular target: B3; assay: cell-based or functional assay

Q: For B1, which “inhibition of mIFN-γ antiviral effect in EMCV-infected mouse L929 cells, IC50” value (recombinant murine IFN-γ) is on record?
A: ~10 nM

Q: And the “inhibition of mIFN-γ induction of class I MHC antigen H-2Kk in mouse L929 cells, IC50” value (recombinant murine IFN-γ)?
A: ~10 nM

Q: How did the Kd [1] turn out when B2 was run?
A: 3.3 nM

Q: Does B2 bind [2]?
A: no binding

Q: What does the source list for B3?
A: binding result [3]: no binding; Kd [4]: 1.5 nM

Q: How did the “inhibition of hIFN-γ antiviral effect in EMCV-infected human A549 cells, IC50” value (recombinant human IFN-γ) turn out when B4 was run?
A: ~8 nM

Q: And the “inhibition of hIFN-γ induction of ICAM-1 in human HeLa cells, half-maximal inhibition (IC50)” value (recombinant human IFN-γ)?
A: ~13 nM
